Test results as given in publication PMC7847540, “ClpX Is Essential and Activated by Single-Strand DNA Binding Protein in Mycobacteria” (Journal of Bacteriology, 2020).

Biological target: the molecule itself
Assay: size-based filtration (300-kDa cutoff filter)

B1: N-terminally 6×His-tagged truncated form of ClpX (lacking the first 60 amino acids) (enzyme)
chain: not shown
notes: ClpX ATPase, M. tuberculosis, lacking the first 60 amino acids; also called hexameric ClpX
- stoichiometry N: 6
